# Article PMC11906491
# Molecular target: neonatal FcR (FcRn) (UniProt P55899)
# Test: BLI + SPR
# Sequence of UniProt P55899 (P55899 24-365): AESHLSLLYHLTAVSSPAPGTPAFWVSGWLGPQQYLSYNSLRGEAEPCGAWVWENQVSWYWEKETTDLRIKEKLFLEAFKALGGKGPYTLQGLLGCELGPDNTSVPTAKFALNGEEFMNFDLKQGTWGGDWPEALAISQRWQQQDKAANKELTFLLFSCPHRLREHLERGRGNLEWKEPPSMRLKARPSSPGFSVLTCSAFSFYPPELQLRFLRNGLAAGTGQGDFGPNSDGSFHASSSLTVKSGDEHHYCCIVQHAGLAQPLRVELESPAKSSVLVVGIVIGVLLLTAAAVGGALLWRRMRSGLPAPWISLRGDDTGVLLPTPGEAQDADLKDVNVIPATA
row,Relative FcRn affinity (%),Substance
1,104,BAT1806/BIIB800 (antibody)
2,100,forced deamidation TCZ (antibody)
3,96,reference tocilizumab (antibody)
